# Where “and” joins values, the source holds several entries; their conditions need not be identical. Equal entries are not always repeated.
# B1: Antibody No. 457.1 (antibody, human IgG1, kappa)
# heavy: not shown
# light: EIVLTQSPATLSLSPGERATLSCGASQSVSSNYLAWYQQKPGLAPRLLIYGASSRATGVPDRFSGSGSGTDFTLTISRLEPEDFAVYYCQQYGYSYTFGQGTKLEIKRTVAAPSVFIFPPSDEQLKSGTASVVCLLNNFYPREAKVQWKVDNALQSGNSQESVTEQDSKDSTYSLSSTLTLSKADYEKHKVYACEVTHQGLSSPVTKSFNRGEC
# notes: Human IgG1, kappa
# B2: Antibody No. 457.1 (antibody, human IgG1, kappa)
# heavy: not shown
# light: B1 light
# notes: human IgG1
# B3: Antibody No. 457.1 (antibody, human IgG1, kappa)
# light: B1 light
# heavy: not shown
# B4: Antibody No. 269.1 (antibody, human IgG1, kappa)
# heavy: not shown
# light: EIVLTQSPDFQSVTPKEKVTITCRASQSIGSSLHWYQQKPDQSPKLLIKYASQSISGVPSRFSGSGSGTDFTLTINSLEAEDAAAYYCHQSSSLPQTFGQGTKVEIKRTVAAPSVFIFPPSDEQLKSGTASVVCLLNNFYPREAKVQWKVDNALQSGNSQESVTEQDSKDSTYSLSSTLTLSKADYEKHKVYACEVTHQGLSSPVTKSFNRGEC
# notes: Human IgG1, kappa
# B5: Antibody No. 269.1 (antibody, human IgG1, kappa)
# heavy: not shown
# light: B4 light
# notes: human IgG1
# B6: Antibody No. 833.1 (antibody, human IgG1, kappa)
# heavy: not shown
# light: B4 light
# notes: human IgG1; also called Ab No. 833.1
# B7: Antibody No. 833.1 (antibody, human IgG1, kappa)
# heavy: not shown
# light: B4 light
# notes: Human IgG1, kappa; also called Ab No. 833.1
# B8: Antibody No. 833.1 (antibody, human IgG1, kappa)
# light: B4 light
# heavy: not shown
# notes: also called Ab No. 833.1
# Columns and labels:
# [1] = molecular target: T1, His-tagged recombinant human VISTA-ECD (Met 1 to Ala 194) (human, UniProt Q9H7M9 33-194); experiment: ELISA, His-tagged human VISTA ECD on plate, mAb titrated
# T1 construct: also called hu.VISTA; VISTA-His; not shown: His tag
# [2] = molecular target: T1, His-tagged recombinant human VISTA-ECD …; experiment: ELISA endpoint, His-VISTA on plate, mAb at 2 µg/mL
# Protocol: (§1) Nickel-coated 96-well ELISA plates (Thermo Scientific) or Maxisorb 96-well polystyrene ELISA plates were coated overnight at 4° C. with 50 μL of a 0.5-1 μg/mL solution of His-tagged VISTA protein (SinoBiological, Met1-Ala194 produced in HE293 cells) in 0.1M NaHCO₃ pH 9.6. All subsequent incubations were performed at room temperature. Wells were washed 3 times with PBST (0.05% Tween 20) and blocked for 2 h with 200 μL 5% BSA in PBST. […] Each antibody dilution was incubated at 50-100 μL/well in the ELISA plate for 1 h, after which plates were washed 3 times with PBST and incubated with a 1:20,000 dilution of Biotin SP AffiniPure Donkey Anti-Human IgG (H+L) polyclonal antibody (Jackson ImmunoResearch, 50-100 μL/well) for 1 h. Wells were washed 3 times with PBST, and the plates were incubated with 50-100 μL of a 1:200 dilution of Streptavidin-HRP (R&D Systems) for 30 min. Wells were washed 3 times with PBST and developed with 100 μL 1-Step Ultra Fast TMB Substrate (Thermo Scientific) for 2 minutes. The reaction was stopped with 100 μL 2N H₂SO₄, and plate well absorbance was measured at 450 nm (Biotek ELx808).
# [3] = molecular target: T2, His-tagged recombinant cynomolgus monkey VISTA-ECD (Met 1 to Ala 194) (cynomolgus monkey, UniProt Q9H7M9 33-194 (human entry)); experiment: ELISA endpoint, His-VISTA on plate, mAb at 2 µg/mL
# T2 construct: also called cyno VISTA; Cyno VISTA
# T2 chain: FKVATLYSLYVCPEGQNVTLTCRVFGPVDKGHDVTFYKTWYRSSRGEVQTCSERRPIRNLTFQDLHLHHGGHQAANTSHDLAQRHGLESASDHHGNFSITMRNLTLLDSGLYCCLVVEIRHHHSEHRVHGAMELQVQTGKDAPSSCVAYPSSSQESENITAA
# Protocol: as §1
# [4] = molecular target: T2, His-tagged recombinant cynomolgus …; experiment: BLI Octet, mAb on AHC sensor, cyno VISTA-ECD-His 300 nM
# Protocol: (§2) Octet scouting: Antibody affinities were measured using biolayer interferometry (BLI) on the Octet Red 96 (ForteBio) system. Anti-human IgG Fc Capture (AHC) dip and read sensors (ForteBio) were used to capture each anti-VISTA antibody formatted as either an IgG1 or IgG4 and diluted to 20 μg/mL in PBS pH 7.4. AHC sensors were dipped into antibody solution for 180 s to capture each IgG on the sensor. An initial baseline was established by soaking each sensor in PBS pH 7.4 for an additional 120 s. […] Human, cynomolgus monkey, and mouse VISTA-ECD were evaluated. Studies were performed by association with VISTA-ECD for 240 s and dissociation in PBS pH 7.4 for 360 s. Data analysis was performed using Octet Data Analysis software version 9.0.0.14. In general, baseline alignment without subtraction was used for raw data processing. A Savitzky-Golay digital filter was used to remove high-frequency noise, and processed data were globally fit to a 1:1 binding model. Where binding was present, the affinity constant (KD) was calculated for each antibody-antigen pair.
# [5] = molecular target: T3, His-tagged recombinant mouse VISTA-ECD (Met 1 to Ala 194) (mouse, UniProt Q9D659 33-194); experiment: ELISA endpoint, His-VISTA on plate, mAb at 23 µg/mL
# T3 construct: Bought (Sino Biological); not shown: His tag
# T3 sequence: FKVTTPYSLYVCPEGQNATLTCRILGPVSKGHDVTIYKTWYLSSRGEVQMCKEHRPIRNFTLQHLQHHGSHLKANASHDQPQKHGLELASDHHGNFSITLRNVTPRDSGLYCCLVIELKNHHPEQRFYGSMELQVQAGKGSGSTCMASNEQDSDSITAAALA
# [6] = molecular target: T4, his-tagged human VISTA-ECD (human, UniProt Q9H7M9 33-194); experiment: BLI sandwich binning; VISTA-ECD-His held by capture Ab VSTB-174 (competitor)
# T4 construct: also called hu.VISTA; VISTA protein (Human recombinant, produced in HEK 293 cells, SinoBiologics); not shown: His tag
# RFQ-VISTA-ECD-Fc = molecular target: T5, RFQ-VISTA-ECD-Fc (human); experiment: ELISA, 10 ug/mL antibody on plate-bound mutant VISTA-Fc
# T5 construct: also called hVISTA ECD-Fc R54A, F62A, Q63A; human VISTA-Fc 54A62A63A
# Protocol: (§3) ELISA was used to measure antibody binding to wild-type and mutant VISTA essentially as described above. VISTA-Fc (5 μg/mL) was immobilized on Maxisorb 96-well ELISA plates and reacted with each antibody diluted to 10 μg/mL in a standard ELISA format. Binding data were reported as absorbance at 450 nm.
# [7] = molecular target: T4, his-tagged human VISTA-ECD; experiment: BLI sandwich binning; VISTA-ECD-His held by capture Ab 245.1 (competitor)
# Protocol: (§4) Octet binning studies: Epitope mapping was performed by BLI on the Octet system. AHC sensors were used to capture anti-VISTA antibody (20 μg/mL) over 100 s. Unbound sites on the sensor were blocked with a saturating amount (50 μg/mL) of pooled purified human IgG for 180 s. Antigen (his-tagged human VISTA-ECD at 100 nM) was bound to immobilized antibody for 180 s, after which the sensor was interrogated for the ability of a paired antibody to bind the antigen in the sandwiched format. Multiple pairing arrangements were interrogated such that each antibody was used as the capture antibody in the format at least one time. Data are represented as response (nm) for the secondary antibody.
# [8] = molecular target: T4, his-tagged human VISTA-ECD; experiment: BLI sandwich binning; VISTA-ECD-His held by capture Ab 457.1 (competitor)
# Protocol: as §4
# [9] = molecular target: T4, his-tagged human VISTA-ECD; experiment: BLI sandwich binning; VISTA-ECD-His held by capture Ab 269.1 (competitor)
# Protocol: as §4
# [10] = molecular target: T4, his-tagged human VISTA-ECD; experiment: BLI sandwich binning; VISTA-ECD-His held by capture Ab 321.1 (competitor)
# Protocol: as §4
# [11] = molecular target: T4, his-tagged human VISTA-ECD; experiment: BLI sandwich binning; VISTA-ECD-His held by capture Ab 173.1 (competitor)
# Protocol: as §4
# [12] = molecular target: T4, his-tagged human VISTA-ECD; experiment: BLI sandwich binning; VISTA-ECD-His held by capture Ab 465.1 (competitor)
# Protocol: as §4
# [13] = molecular target: T6, hVISTA ECD-Fc R54A, F62A, Q63A (human); experiment: ELISA on immobilized VISTA-Fc (5 µg/mL), antibody at 10 µg/mL
# T6 construct: also called human VISTA-Fc 54A62A63A; triple VISTA-Fc mutant
# Protocol: as §3
# [14] = molecular target: T1, His-tagged recombinant human VISTA-ECD …; experiment: BLI Octet, reversed format (avidity): hu VISTA-ECD-His on HIS1K sensor, mAb 133.3 nM
# [15] = molecular target: T1, His-tagged recombinant human VISTA-ECD …; experiment: BLI Octet, mAb on AHC sensor, hu VISTA-ECD-His 50 nM
# Protocol: as §2
# [16] = molecular target: T7, His-tagged recombinant mouse VISTA-ECD (Met 1 to Ala 194) (Sino Biological) (mouse, UniProt Q9D659 33-194); experiment: BLI (Octet Red 96), antibody on AHC sensor
# T7 construct: not shown: His tag
# T7 sequence: T3 sequence
binder,measurement,setting,value
B1,EC50,[1],0.394 µg/mL
same,endpoint absorbance (450 nm),[2],2.04
same,endpoint absorbance (450 nm),[3],2
same,Response,[4],0.456
same,endpoint absorbance (450 nm),[5],0.082
B2,BLI response of secondary antibody,[6],0.0285 nm
same,ELISA Abs 450 nm,RFQ-VISTA-ECD-Fc,1.6 Abs 450 nm
same,BLI response of secondary antibody,[7],0.0427 nm
same,BLI response of secondary antibody,[8],0.0481 nm
same,BLI response of secondary antibody,[9],0.0173 nm
same,BLI response of secondary antibody,[10],0.0481 nm
same,BLI response of secondary antibody,[11],0.0675 nm
same,BLI response of secondary antibody,[12],0.044 nm
B3,binding result,[13],binds
B4,EC50,[1],0.475 µg/mL
same,Kd,[14],< 1 pM
same,Response,[4],0.434
same,endpoint absorbance (450 nm),[5],0.079
B5,BLI response of secondary antibody,[6],0.0261 nm
same,ELISA Abs 450 nm,RFQ-VISTA-ECD-Fc,1.65 Abs 450 nm
same,BLI response of secondary antibody,[7],0.0319 nm
same,BLI response of secondary antibody,[8],0.0507 nm
same,BLI response of secondary antibody,[9],0.066 nm
same,BLI response of secondary antibody,[10],0.0542 nm
same,BLI response of secondary antibody,[11],0.0651 nm
same,BLI response of secondary antibody,[12],0.0505 nm
B6,ELISA Abs 450 nm,RFQ-VISTA-ECD-Fc,1.56 Abs 450 nm
B7,Response,[15],0.334
same,EC50,[1],0.074 µg/mL and 0.5 nM
same,endpoint absorbance (450 nm),[2],2.02
same,endpoint absorbance (450 nm),[3],1.89
B8,binding result,[13],binds
same,binding result,[16],no binding (tested: 50 nM-300 nM)

# From patent US20240132593A1 (KINETA, published 2024)
